From article PMC11508087 (2024)

B1: pOA-1 (antibody, V domains shown)
VH: EENVVESGGGLVRPGGSLRLSCIFSGFTFSTYSVRWVRQAPGKGLEFLTYIFKNVGDIDTADSVKGRFTISRDNSQNTAYLQMNSLRPEDTARYFCLVANKYWGPGVEVLVSS
VL: AIVLTQSPLSLSVSPGDSASISCRSSQSLVEDDGSSVLNWYLQRPGQSPQRLIYSAVGRDAGVPDRFSGSGSGTDFTLTISGVEAEDLGVYYCQQSKVSTTFGAGSKLDLK
B2: pOA-13 (antibody, V domains shown)
VH: EGQLVQSGGGRVQPGGSLRLVCVGSGDDGLGHYAVTWVRQAPGRGLEWLASDASRVTTTYYADSVKGRFTSTLDIPHNTAYLQMNSLKTEDTARYFCARNVWTLDIWGPGVEVVVS
VL: QTVIQEPAMSVSLGGTVTLTCAFRGGSVDGDNYPGWLRQQTPGQPPRLLISSTNNRPTGVPSRFSGTISGNKATLTITGAQTEDEADYFCALWNDNNNRLIFGGGTRLTVL
B3: pOA-2 (antibody, V domains shown)
VH: EEKVVESGGGLVQPGGSLRLSCVGSGFNFKNYEINWVRQAPGKALEWLAYITQTSDFIYYADSVKGRFTISRDNSRNTAYLQMNNLRTEDTARYFCTRAGLTGCKSRHCMYVWGPGAEVVVSS
VL: QTVIQEPAMSVSLGGTVTLTCGFISGSVTGTNYPSWFQQTPGQPPRLLIYYANSRPTEVPSRFSGAISGNKAALTITGAQAEDEADYFCCLYKTNNNILFGGGTHLTVL

Experiments:
Test in all cases: BLI
FMDV A/AF72 146S antigen [1] = molecular target: T1, FMDV A/AF72 146S antigen (foot-and-mouth disease virus serotype …)
FMDV A/AF72 146S antigen [2] = molecular target: T1, FMDV A/AF72 146S antigen; remark: listed apart in the source
[3] = molecular target: T2, FMDV O/Tibet/99 146S antigen (foot-and-mouth disease virus serotype …)
[4] = molecular target: T2, FMDV O/Tibet/99 146S antigen; remark: listed apart in the source

| Binder | Kd (FMDV A/AF72 146S antigen [1]) | koff (FMDV A/AF72 146S antigen [2]) | koff [3] | Kd [4] |
| --- | --- | --- | --- | --- |
| B1 | 2.48 nM | 0.00467 s⁻¹ | 2.88e-05 s⁻¹ |  |
| B2 | 5.11 nM | 0.00634 s⁻¹ | 0.00143 s⁻¹ | 1.8 nM |
| B3 | 4.44 nM | 0.00249 s⁻¹ | 0.00242 s⁻¹ | 4.85 nM |
